Measured values from IntAct's records for PubMed 29892012.

B1: MOB kinase activator 3C (Homo sapiens), Q70IA8 (parent)
chain: MALCLKQVFAKDKTFRPRKRFEPGTQRFELYKKAQASLKSGLDLRSVVRLPPGENIDDWIAVHVVDFFNRINLIYGTMAERCSETSCPVMAGGPRYEYRWQDERQYRRPAKLSAPRYMALLMDWIEGLINDEEVFPTRVGVPFPKNFQQVCTKILTRLFRVFVHVYIHHFDSILSMGAEAHVNTCYKHFYYFIREFSLVDQRELEPLREMTERICH
partner: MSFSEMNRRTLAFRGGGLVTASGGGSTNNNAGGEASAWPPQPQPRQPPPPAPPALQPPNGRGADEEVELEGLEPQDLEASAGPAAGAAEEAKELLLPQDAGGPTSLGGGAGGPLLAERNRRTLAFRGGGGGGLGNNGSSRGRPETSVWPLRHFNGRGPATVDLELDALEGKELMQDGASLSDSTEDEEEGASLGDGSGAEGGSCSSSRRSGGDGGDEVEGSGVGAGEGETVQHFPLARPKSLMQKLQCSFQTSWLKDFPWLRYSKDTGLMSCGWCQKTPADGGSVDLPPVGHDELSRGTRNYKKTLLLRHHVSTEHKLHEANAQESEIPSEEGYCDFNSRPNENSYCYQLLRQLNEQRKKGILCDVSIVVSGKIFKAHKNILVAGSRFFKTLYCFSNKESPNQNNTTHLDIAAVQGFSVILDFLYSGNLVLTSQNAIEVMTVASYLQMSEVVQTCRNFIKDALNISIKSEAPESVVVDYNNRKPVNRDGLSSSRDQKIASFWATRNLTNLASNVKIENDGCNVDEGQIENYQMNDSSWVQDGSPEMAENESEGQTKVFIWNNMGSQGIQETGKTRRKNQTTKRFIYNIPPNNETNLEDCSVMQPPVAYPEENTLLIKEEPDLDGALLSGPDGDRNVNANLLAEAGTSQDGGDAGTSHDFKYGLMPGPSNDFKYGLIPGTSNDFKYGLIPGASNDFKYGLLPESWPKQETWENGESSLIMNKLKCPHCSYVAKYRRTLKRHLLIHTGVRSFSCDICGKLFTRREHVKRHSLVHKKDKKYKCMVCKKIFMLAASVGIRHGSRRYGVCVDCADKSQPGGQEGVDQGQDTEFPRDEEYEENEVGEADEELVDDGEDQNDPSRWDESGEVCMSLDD
B2: U3 small nucleolar RNA-associated protein 25 homolog (Homo sapiens), Q68CQ4 (parent)
chain: MGKRGSRSQSQLLNTLTKKQKKHLRDFGEEHPFYDRVSRKEAKPQICQLSESSDSSDSESDSESEPQQVSGYHRLLATLKNVSEEEEEDEEEEEEEDSIVDDAEMNDEDGGSDVSVEEEMAAESTESPENVALSADPEGKEDGEEPPGTSQTSPEEFTDAKHESLFSLETNFLEEESGDNSSLKASQDPFLQHVNKELKEKAIQAVATNPKTTHELKWPILGQLFFSSKFQKLETFKPPKDIDLKSLHLQKPLESTWTKTNSQFLSGPQKSSSPFTPLQKELFLIMNSYRDLFYPERTALKNGEEIRHVYCLHVINHILKANAQVLGNNSRRRSQKFGVGDDDDFRDQGLTRPKVLIVVPFREAALRVVQLFISLLEGDSKKKIIVSNKKRFQGEYGSDPEERPPNLKRPEDYEAVFVGNIDDHFRIGVAILQRSIRLYAPFYSSDILIASPLGLRTIIGGEGEKKRDFDFLSSIELLIIDQADIYLMQNWEHVLHLMNHMNLLPLDSHGVDFSRVRMWSLNNWSKYYRQTLLFGALQDAQINSVFNKYCVNMQGQVAVRNVPMTGSISHVLVQLPHVFQRMEAENLASVIDARFNFFVNKILPQYRDAVMSHTLIYIPSYFDFVRLRNYFKKEELNFTHICEYTQKSGVSRARHFFLQGEKQFLLFTERFHFYKRYTIKGIRNLIFYELPTYPHFYSEICNMLRATNRGEEATWTCTVLYSKYDAQRLAAVVGVERAAQMLQSNKNVHLFITGEK
partner: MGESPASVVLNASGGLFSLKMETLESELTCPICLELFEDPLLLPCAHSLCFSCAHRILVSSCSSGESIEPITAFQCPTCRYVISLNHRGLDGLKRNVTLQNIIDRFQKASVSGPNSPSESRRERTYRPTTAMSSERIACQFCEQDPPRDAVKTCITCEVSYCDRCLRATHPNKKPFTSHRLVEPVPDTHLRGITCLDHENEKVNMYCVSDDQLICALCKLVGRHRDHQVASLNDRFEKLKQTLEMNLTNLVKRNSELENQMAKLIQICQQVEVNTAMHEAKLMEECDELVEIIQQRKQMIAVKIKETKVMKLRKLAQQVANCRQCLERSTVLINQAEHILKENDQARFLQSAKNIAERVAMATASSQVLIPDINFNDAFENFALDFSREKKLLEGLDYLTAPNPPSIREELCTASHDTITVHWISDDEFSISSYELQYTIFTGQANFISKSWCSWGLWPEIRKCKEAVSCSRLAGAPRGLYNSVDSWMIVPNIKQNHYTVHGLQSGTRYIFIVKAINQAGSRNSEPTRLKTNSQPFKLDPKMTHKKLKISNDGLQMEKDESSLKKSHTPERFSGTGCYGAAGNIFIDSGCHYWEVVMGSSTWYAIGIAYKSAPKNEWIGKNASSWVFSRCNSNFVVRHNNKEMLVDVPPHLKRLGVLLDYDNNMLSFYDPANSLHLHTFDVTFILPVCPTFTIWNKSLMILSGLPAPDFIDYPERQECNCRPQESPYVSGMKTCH
B3: U3 small nucleolar RNA-associated protein 25 homolog (Homo sapiens), Q68CQ4 (parent)
chain: B2 chain
partner: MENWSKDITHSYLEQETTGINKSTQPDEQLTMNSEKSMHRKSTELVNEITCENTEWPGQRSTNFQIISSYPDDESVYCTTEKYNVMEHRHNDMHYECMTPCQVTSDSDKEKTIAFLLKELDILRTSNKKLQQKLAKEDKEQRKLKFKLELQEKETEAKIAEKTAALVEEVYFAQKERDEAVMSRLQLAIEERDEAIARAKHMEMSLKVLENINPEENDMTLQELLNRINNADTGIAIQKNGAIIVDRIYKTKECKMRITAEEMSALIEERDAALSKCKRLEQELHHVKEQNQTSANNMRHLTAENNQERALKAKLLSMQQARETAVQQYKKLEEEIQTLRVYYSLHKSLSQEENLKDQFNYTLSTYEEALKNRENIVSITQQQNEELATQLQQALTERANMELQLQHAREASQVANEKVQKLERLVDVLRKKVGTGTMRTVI
B4: Atypical chemokine receptor 2 (Homo sapiens), O00590 (parent)
chain: MAATASPQPLATEDADSENSSFYYYDYLDEVAFMLCRKDAVVSFGKVFLPVFYSLIFVLGLSGNLLLLMVLLRYVPRRRMVEIYLLNLAISNLLFLVTLPFWGISVAWHWVFGSFLCKMVSTLYTINFYSGIFFISCMSLDKYLEIVHAQPYHRLRTRAKSLLLATIVWAVSLAVSIPDMVFVQTHENPKGVWNCHADFGGHGTIWKLFLRFQQNLLGFLLPLLAMIFFYSRIGCVLVRLRPAGQGRALKIAAALVVAFFVLWFPYNLTLFLHTLLDLQVFGNCEVSQHLDYALQVTESIAFLHCCFSPILYAFSSHRFRQYLKAFLAAVLGWHLAPGTAQASLSSCSESSILTAQEEMTGMNDLGERQSENYPNKEDVGNKSA
B5: Glucosamine-6-phosphate deaminase 2 (Homo sapiens), Q8TDQ7 (parent)
chain: MRLVILDNYDLASEWAAKYICNRIIQFKPGQDRYFTLGLPTGSTPLGCYKKLIEYHKNGHLSFKYVKTFNMDEYVGLPRNHPESYHSYMWNNFFKHIDIDPNNAHILDGNAADLQAECDAFENKIKEAGGIDLFVGGIGPDGHIAFNEPGSSLVSRTRLKTLAMDTILANAKYFDGDLSKVPTMALTVGVGTVMDAREVMILITGAHKAFALYKAIEEGVNHMWTVSAFQQHPRTIFVCDEDATLELRVKTVKYFKGLMHVHNKLVDPLFSMKDGN
partner: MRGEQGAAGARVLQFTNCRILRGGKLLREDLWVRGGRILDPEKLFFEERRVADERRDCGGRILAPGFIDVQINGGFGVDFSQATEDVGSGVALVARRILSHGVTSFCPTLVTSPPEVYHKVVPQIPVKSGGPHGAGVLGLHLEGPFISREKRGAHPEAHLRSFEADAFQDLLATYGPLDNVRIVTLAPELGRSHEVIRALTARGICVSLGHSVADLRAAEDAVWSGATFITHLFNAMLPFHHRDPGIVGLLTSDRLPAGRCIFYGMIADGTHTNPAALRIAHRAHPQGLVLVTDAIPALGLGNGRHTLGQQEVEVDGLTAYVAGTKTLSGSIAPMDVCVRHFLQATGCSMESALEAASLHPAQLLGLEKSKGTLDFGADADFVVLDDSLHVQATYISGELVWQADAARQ

Variants of: B1
Details: with zbt10_human ZBTB10, Q96DT7

Variant | effect of a mutation on the interaction
I173F | disrupting interaction strength

Variants of: B2
Details: with trim1_human MID2, Q9UJV3

Variant | effect of a mutation on the interaction
D399E | with no effect

Variants of: B3
Details: with mipo1_human MIPOL1, Q8TD10

Variant | effect of a mutation on the interaction
D399E | with no effect

Variants of: B4
Details: with creb3_human CREB3, O43889
creb3_human CREB3, O43889, sequence (O43889 whole entry): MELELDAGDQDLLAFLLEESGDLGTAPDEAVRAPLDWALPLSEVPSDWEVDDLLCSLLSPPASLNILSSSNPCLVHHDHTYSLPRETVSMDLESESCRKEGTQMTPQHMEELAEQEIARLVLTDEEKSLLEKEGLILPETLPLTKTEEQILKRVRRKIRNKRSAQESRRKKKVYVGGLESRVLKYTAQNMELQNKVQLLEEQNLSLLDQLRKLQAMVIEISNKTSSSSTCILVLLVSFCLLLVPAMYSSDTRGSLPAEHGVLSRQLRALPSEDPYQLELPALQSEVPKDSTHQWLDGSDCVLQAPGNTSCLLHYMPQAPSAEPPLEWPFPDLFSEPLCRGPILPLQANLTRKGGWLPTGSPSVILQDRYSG

Variant | effect of a mutation on the interaction
V42M | with no effect

Variants of: B5
Details: with naga_human AMDHD2, Q9Y303

Variant | effect of a mutation on the interaction
I216V | with no effect
